Data as given in paper PMC10341807, “Lung Surfactant Protein B Peptide Mimics Interact with the Human ACE2 Receptor” (International Journal of Molecular Sciences, 2023).
pKd: −log10 of the molar value. Bridges are numbered along the chain shown (N, C = ends). Where no end group is shown, it is not given here.

Legend:
[1] = target: recombinant human ACE2 receptor construct (angiotensin-converting enzyme 2) (human) (UniProt Q9BYF1); assay: SPR; Biacore T100; ACE2 immobilised on the sensor chip, peptide (from 1 mg/mL in DMSO, diluted in HBS-EP buffer, 0.5 µg/mL) flowed at 30 µL/min for 5 min; 37 °C; HBS-EP: 10 mM Hepes pH 7.4, 150 mM NaCl, 3 mM EDTA, 0.005% surfactant P20
recombinant human ACE2 receptor construct (angiotensin-converting enzyme 2) (human), sequence (Q9BYF1 18-740): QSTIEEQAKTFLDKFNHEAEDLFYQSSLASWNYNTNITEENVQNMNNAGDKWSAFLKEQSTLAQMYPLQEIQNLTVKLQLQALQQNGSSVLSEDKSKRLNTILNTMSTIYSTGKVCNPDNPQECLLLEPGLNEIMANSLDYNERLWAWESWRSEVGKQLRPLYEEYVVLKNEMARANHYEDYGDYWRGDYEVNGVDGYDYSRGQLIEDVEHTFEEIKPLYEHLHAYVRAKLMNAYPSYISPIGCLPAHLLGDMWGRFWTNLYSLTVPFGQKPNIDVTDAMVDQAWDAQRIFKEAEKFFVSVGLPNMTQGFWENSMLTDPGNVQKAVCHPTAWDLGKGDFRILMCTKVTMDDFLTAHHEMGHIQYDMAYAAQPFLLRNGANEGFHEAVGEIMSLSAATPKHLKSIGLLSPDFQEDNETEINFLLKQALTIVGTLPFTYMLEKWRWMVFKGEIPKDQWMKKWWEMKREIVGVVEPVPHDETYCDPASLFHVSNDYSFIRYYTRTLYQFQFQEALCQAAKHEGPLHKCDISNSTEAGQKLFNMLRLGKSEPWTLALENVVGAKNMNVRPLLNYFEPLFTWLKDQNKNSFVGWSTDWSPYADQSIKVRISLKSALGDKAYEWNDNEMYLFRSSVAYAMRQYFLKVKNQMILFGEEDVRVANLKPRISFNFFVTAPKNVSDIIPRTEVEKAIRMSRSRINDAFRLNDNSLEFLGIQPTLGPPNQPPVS

[2] = target: T1, recombinant human ACE2 receptor construct (Homo sapiens, UniProt Q9BYF1); assay: Surface plasmon resonance (SPR) binding of peptides to immobilised rhACE2; details: pH 7.4, read-out: ka
T1 construct: included residues Glutamine 18 to Serine 740 of the full-length protein; 10xHis (C); purchased R&D Systems
T1 sequence (Q9BYF1 18-740): as above
Procedure: The binding of the solute to the sensor surface ligand results in an evanescent sensor response and is measured in response units (RU) that are proportional to the bound mass.
Expressed viral spike and human ACE2 receptor protein constructs were supplied by R&D Systems (https://www.bio-techne.com accessed on 25 May 2023). The recombinant human ACE2 receptor construct included residues Glutamine 18 to Serine 740 of the full-length protein with a C-terminal 10 Histidine tag.
The organic-solvated peptides were then diluted into 1–2000 dilutions in the HBS–EP buffer for injection. Binding measurements were then made by flowing a running buffer solution of the test sample in the HBS–EP buffer over the chip-associated ACE2 at a flow rate of 30 µL/min for 5 min to determine the binding affinity at 37 °C. […] The binding associated with control medium containing no peptide was subtracted from final affinity traces. The mean “on” and “off” rate constants (kon and koff) and the dissociation equilibrium constant (KD = koff/kon) were calculated using Biacore Insight Evaluation Software version 5, based on curve-fitting measurements.

Super Mini-B (SMB), synthetic lung surfactant protein B peptide mimic
Ka [1]: 1.01e+08 M⁻¹
pKd [1]: 8.01
Kobs (at 1.05 × 10^−7 analyte) [1]: 0.000712 s⁻¹
koff [1]: 6.12e-05 s⁻¹
kon [1]: 6200 M⁻¹ s⁻¹

FPIPLPYCWLCRALIKRIQAMIPKGGRMLPQLVCRLVLRCS (disulfide 8-40, 11-34) [SMB]
kon [2]: 6200 M⁻¹ s⁻¹

FPIPLPYYWLYRALIKRIQALIPKGGRLLPQLVYRLVLRYS [B-YL]
kon [2]: 21900 M⁻¹ s⁻¹
